For assay [1], the target named is Recombinant human FAPα (human) (UniProt Q12884). In words: SPR (Reichert 4SPR), antibody on Protein A chip, antigen flown over.
Assay [2] deals with FAPα on FAPα+ fibroblasts (human) (UniProt Q12884). The assay is described as follows: flow cytometry on BJ fibroblasts, anti-human Fc secondary antibody, % IgG bound cells. (In flow cytometry, cells or beads pass a laser one at a time.)
The target of assay [3] is PD-1 on activated CD4 and CD8 T-cells. In words: flow cytometry on anti-CD3/anti-CD28-activated CD8 T-cells, anti-human IgG secondary antibody, % cells bound IgG.
The target is the same in assay [4]. The assay is described as follows: flow cytometry on anti-CD3/anti-CD28-activated CD4 T-cells, anti-human IgG secondary antibody, % cells bound IgG.
For assay [5], the target named is TIGIT on Vδ1 γδ T-cells (human) (UniProt Q495A1). The assay is described as follows: flow cytometry, anti-human IgG secondary antibody, Vδ1 γδ T-cells.
For assay [6], the target named is Recombinant human TIGIT (human) (UniProt Q495A1). The assay is described as follows: SPR (Reichert 4SPR), antibody on Protein A chip, antigen flown over.
The target of assay [7] is TIGIT on activated CD8 T-cells (human) (UniProt Q495A1). The assay is described as follows: flow cytometry, anti-human IgG secondary antibody, activated CD8 T-cells.
Assay [8] concerns the target OX40 on activated CD4 T-cells. In words: flow cytometry on anti-CD3/anti-CD28-activated CD4 T-cells, anti-human IgG secondary antibody, % cells bound IgG.
Assay [9] concerns the target Recombinant human OX40 (human) (UniProt P43489). In words: SPR (Reichert 4SPR), antibody on Protein A chip, antigen flown over.

These results are taken from patent US20230028110A1.

pKd: −log10 of the molar value.

Chain of PD-1 on activated CD4 and CD8 T-cells (chain, as listed by the source limits assumed): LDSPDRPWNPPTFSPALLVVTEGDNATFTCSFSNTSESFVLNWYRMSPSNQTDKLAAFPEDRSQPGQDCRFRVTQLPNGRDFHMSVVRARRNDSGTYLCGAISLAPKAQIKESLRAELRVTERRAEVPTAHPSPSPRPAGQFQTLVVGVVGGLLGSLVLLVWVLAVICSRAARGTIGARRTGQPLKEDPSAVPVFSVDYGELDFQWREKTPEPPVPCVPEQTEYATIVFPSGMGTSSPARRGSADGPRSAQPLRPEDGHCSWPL
Chain of Recombinant human OX40 (human) (P43489 29-216 limits assumed): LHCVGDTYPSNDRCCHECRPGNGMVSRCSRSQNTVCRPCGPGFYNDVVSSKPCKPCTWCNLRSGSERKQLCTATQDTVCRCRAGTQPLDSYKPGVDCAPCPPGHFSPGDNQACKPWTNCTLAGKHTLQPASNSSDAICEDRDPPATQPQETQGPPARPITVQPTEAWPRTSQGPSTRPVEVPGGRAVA
Chain of OX40 on activated CD4 T-cells (chain, as listed by the source limits assumed): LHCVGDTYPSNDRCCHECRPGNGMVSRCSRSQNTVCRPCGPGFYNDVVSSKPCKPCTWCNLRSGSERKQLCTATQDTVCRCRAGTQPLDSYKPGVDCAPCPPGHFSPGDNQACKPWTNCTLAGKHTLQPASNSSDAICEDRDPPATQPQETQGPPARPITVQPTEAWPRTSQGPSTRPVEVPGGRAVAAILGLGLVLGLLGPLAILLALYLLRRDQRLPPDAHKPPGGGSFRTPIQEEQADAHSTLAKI
Chain of TIGIT on activated CD8 T-cells (human) (Q495A1 22-244 limits assumed): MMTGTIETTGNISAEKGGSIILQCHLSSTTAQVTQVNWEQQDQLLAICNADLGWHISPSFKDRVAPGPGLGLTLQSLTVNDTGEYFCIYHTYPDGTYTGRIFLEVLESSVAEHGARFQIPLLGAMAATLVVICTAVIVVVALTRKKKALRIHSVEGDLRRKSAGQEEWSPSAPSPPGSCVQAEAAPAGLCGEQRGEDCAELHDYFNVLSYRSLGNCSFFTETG
Chain of TIGIT on Vδ1 γδ T-cells (human) (Q495A1 22-244, stated change not applied): as the sequence (Q495A1 22-244 limits assumed) above
Chain of Recombinant human TIGIT (human) (Q495A1 22-141 limits assumed): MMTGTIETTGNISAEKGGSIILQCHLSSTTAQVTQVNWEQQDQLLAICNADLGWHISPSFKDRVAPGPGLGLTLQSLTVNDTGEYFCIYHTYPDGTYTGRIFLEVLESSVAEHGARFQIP

Usually pKd stands for the negative decadic logarithm of the Kd, by convention in mol/L. What is called EC50 (read off the curve) is the concentration needed to bring the measured effect to its halfway point. Higher therefore signals lower potency in that assay. Take “Anti-FAPα monoclonal antibody (based on sibrotuzumab)”: the negative logarithm of the Kd (pKd) in assay [1] was 8.41. Also, the concentration for a half-maximal effect (EC50 (read off the curve)) in assay [2] stood at 0.08 nM.
Take “Anti-PD-1 antibody (based on pembrolizumab)”: the concentration giving a half-maximal response (EC50 (read off the curve)) turned out to be 0.1 nM in assay [3] and 0.2 nM in assay [4].
Consider “Anti-TIGIT antibody (based on tiragolumab)”, for which the EC50 (read off the curve) in assay [5] is 8 nM; in [7] it was 0.4 nM. Moreover, in assay [6], the pKd was 9.52.
As to “Anti-OX40 antibody (based on pogalizumab)”, the EC50 (read off the curve) in assay [8] amounted to 0.1 nM. Moreover, the pKd in [9] is 9.09.
